Test results from the DeepSol protein solubility set.

Experiment: soluble on expression in E. coli; label from the status in PepcDB or PDB records

Question: Which “soluble on expression in E. coli” value does the source give for “MTTDFTPWPEALAAQYRQLGYWQDKTLLDYLQQSAERTPNALALVGDNQQWRYQAMLERIEQLAAGFTELGLGCGDNVVLQLGNVAEFYLCFFALLRQGIRPILALPAHRLAEIRYFCQHSQAKAYLIDGAQRPFDYQALAQELLACCPTLQTVIVRGQTRVTDPKFIELASCYSASSCQANADPNQIAFFQLSGGTTGTPKLIPRTHNDYAYSVTASVEICRFDQHTRYLCVLPAAHNFPLSSPGALGVFWAGGCVVLSQDASPQHAFKLIEQHKITVTALVPPLALLWMDHAEKSTYDLSSLHFVQVGGAKFSEAAARRLPKALGCQLQQVFGMAEGLVNYTRLDDSAELIATTQGRPISAHDQLLVVDEQGQPVASGEEGYLLTQGPYTIRGYYRADQHNQRAFNAQGFYITGDKVKLSSEGYVIVTGRAKDQINRGGEKIAAEEVENQLLHHPAVHDAALIAISDEYLGERSCAVIVLKPEQSVNTIQLKRFLHQAGLADYKIPDQIQFIDQLPKTSVGKIDKNALRRRFDTLGLALMS” here?
Answer: not soluble

Question: For “MTTDQSKLEAINQALRAQRQLVRQLDDQQASLERQLQGLTGDSAGWAADTDPALGHVLEAFHALLGSLTESLSQGDAAQLLARCAAELLPDTTGAIFVDQAGVEPANRAIAAWRGAELLTDPNALHYECTEDQAAHRLNIEAQGLYLGVVELRPLSPGRALRAREQQTLQMLASAAGLALATHTLRYRLRHRNVRDPLTGLFNRRYAEDTLERELHRAQRHQLPLSVVLIDLDRFEAYNQRHGQNAGDRMLQAMSDLLQHSFRGSDICARAAGQRFLLVLPEAAIRDAIERANDLRRELAKVRVHLRGLHLPAMTVSMGVAGYPEHADSSDDLMAAADAALQLAKHSGGNTCALAEKVPLSPHNE”, which “soluble on expression in E. coli” value is on record?
Answer: soluble

Question: For “MTTEKINLLDFDRKGLRTFFAEELGEKAFRAEQVMKWIYHFGCDDFDQMNNINKQLREKLKAKCEIRAPYVSEAQHSADGTIKWAMRVGDQDVETVYIPEDDRATLCVSSQVGCALECKFCSTAQQGFNRNLRVSEIIGQVWRAAREIGLEKETGRRPITNVVMMGMGEPLLNMKNLIPALEIMLDDLGFGLSKRRVTVSTSGVVSGLEQMIGQIDVALAISLHAPNDKLRSEIMPINDRWNIEAFLEVVRRYIASSNANRGKVTVEYVLLDHVNDGTEHAHELAELLKGTPCKINLIPFNPYPGSPYKKPSNSRIDRFQKTLMQYEHTVTIRKTRGDDIDAACGQLVGDVIDRTKRTKAKQFDGQAIPVKTL”, which “soluble on expression in E. coli” value is on record?
Answer: not soluble

Question: For “MTTGNNDFYYSNKYEDDEFEYRHVHVTKDVSKLIPKNRLMSETEWRSLGIQQSPGWMHYMIHGPERHVLLFRRPLAATQKTGGNVRSGNAVGVR”, which “soluble on expression in E. coli” value is on record?
Answer: not soluble

Question: With “MTTHLNPPQEAPYMKNATFYLLDNDTTVNGLSAVEQLVCEIAAERWRAGKRVLIACEDEKQAIRLDEALWARPAESFVPHNLAGEGPRGGAPVEIAWPQKRNSSPRDILISLRTSFADFATAFTEVVDFVPYEETLKQLARERYKAYRVAGFNLNTATWK” as the sequence, how does the “soluble on expression in E. coli” value read?
Answer: not soluble

Question: Which “soluble on expression in E. coli” value does the source give for “MTTKRKETRESVCYREIKKKIRNGELKPGDRLIENTLSEQLGISRTPIRKAIGMLAADGYVEYNDFRGAFVRDSIINKERYFEMTEILGLFLKQAIQKIRTKKISFNKMRVVAKLVEIERDVEPSDPAVYFEYEKWFVNDLLTYMKNNYYLKISNDFFNNIQEFGDEEVIKIAQNACVKTIANIQRFIDALEAQNYDECMAIIDQVIDAHVLVAYR” here?
Answer: not soluble

Question: With “MTTLFISDLHLDPARPAITELFLDFLRTQVPGSDALYILGDLFEAWIGDDTPSTAADAVAEALHAVATTGVPVFFMPGNRDFLVGAAYAQRAGFRILPDPTVIDLYGQPTLLMHGDLLCTDDTAYQAFRAQTRDPAFQAQFLSQPLAARVAFAQQARAASHARQSELKQGDQAQFETVTDVAPAEVDATFVRYGLDRIIHGHTHRPAIHTVQAGGRTCTRVVLGDWYEQGSVLRVDADGLALEQLALLEHHHHHH” as the sequence, how does the “soluble on expression in E. coli” value read?
Answer: soluble

Question: Which “soluble on expression in E. coli” value does the source give for “MTTLSHVEALCALEQPYRADAECDRLFDAAMRELVDYHCEHSPGYRRWLEQNGFTPERLAGLSDWSQLPPIFANYFKRRLLLSTSGEDALELTSSGTTGQKSRMRYDERSIGAAQRMVDRIFDHYGWNTPQQPCNYLLLSYEPAGAITLGTAYTDQFLCKYAPVKRAVYALRHNGKGNEFDPFGAIRALQEFAAEGLPVRIFGFPAFLWFALERMRDMGLPPLALHPESLVFLGGGWKTHADQAIPKAELYRRLGEQLGLPDARCRDGYGSVEHPVPYVECTNHRFHVPSWARAWARDTATLARLPYGEAGFLHLVSPYITSSPAHSMLLSDLAVLQLAERCGCGLATDWFELLGRAGTSKSRSCAMAASELIKESLEHHHHHH” here?
Answer: soluble
